Assay results as given in patent US20030119716A1, “Methods for screening, treating and diagnosing G-protein coupled receptor-related disorders and compositions thereof” (Wyeth, priority 2001, published 2003).

Tested on: c-fos SRE activation in CHO cells stably expressing D2R
Assay: SRE-luciferase reporter assay, quinpirole-stimulated c-fos SRE activation in CHO-D2R cells
Type: cell-based, Chinese hamster
Details: for effect of RGS transfection on quinpirole dose-response curve of SRE activation: RGS (2 μg) transfected alone, no Gα co-transfection; for reduction in SRE activation: RGS co-expressed with Gαq/i chimera

Row | Molecule | effect of RGS transfection on quinpirole dose-response curve of SRE activation | reduction in SRE activation | reduction in quinpirole-stimulated SRE activation (RGS co-expressed with Gαi1, 100 nM quinpirole) | inhibition (attenuation) of SRE activation (RGS co-transfected with Gαi1, all quinpirole concentrations used (10 nM-100 μM)) [%] | reduction in quinpirole-stimulated SRE activation (RGS transfected without Gαi1 co-transfection, 100 nM quinpirole)
1 | RGS2: human RGS2 expressed from pCR3.1; selective GAP for Gαq (protein) MQSAMFLAVQHDCRPMDKSAGSGHKSEEKREKMKRTLLKDWKTRLSYFLQNSSTPGKPKTGKKSKQQAFIKPSPEEAQLWSEAFDELLASKYGLAAFRAFLKSEFCEENIEFWLACEDFKKTKSPQKLSSKARKIYTDFIEKEAPKEINIDFQTKTLIAQNIQEATSGCFTTAQKRVYSLMENNSYPRFLESEFYQDLCKKPQITTEPHAT | rightward shift of the dose-response curve | approximately 70% | – | – | –
2 | RGSz1: human RGSz1 expressed from pCR3.1; highly selective for Gαz (protein) MPQLSQDNQECLQKHFSRPSIWTQFLPLFRAQRYNTDIHQITENEGDLRAVPDIKSFPPAQLPDSPAAPKLFGLLSSPLSSLARFFSHLLRRPPPEAPRRRLDFSPLLPALPAARLSRGHEELPGRLSLLLGAALALPGRPSGGRPLRPPHPVAKPREEDATAGQSSPMPQMGSERMEMRKRQMPAAQDTPGAAPGQPGAGSRGSNACCFCWCCCCSCSCLTVRNQEDQRPTIASHELRADLPTWEESPAPTLEEVNAWAQSFDKLMVTPAGRNAFREFLRTEFSEENMLFWMACEELKKEANKNIIEEKARIIYEDYISILSPKEVSLDSRVREVINRNMVEPSQHIFDDAQLQIYTLMHRDSYPRFMNSAVYKDLLQSLSEKSIEA | rightward shift of the dose-response curve | – | – | – | –
3 | RGS4: human RGS4 expressed from pCR3.1; potent GAP for both Gαq and Gαi (protein) MCKGLAGLPASCLRSAKDMKHRLGFLLQKSDSCEHNSSHNKKDKVVICQRVSQEEVKKWAESLENLISHECGLAAFKAFLKSEYSEENIDFWISCEEYKKIKSPSKLSPKAKKIYNEFISVQATKEVNLDSCTREETSRNMLEPTITCFDEAQKKIFNLMEKDSYRRFLKSRFYLDLVNPSSCGAEKQKGAKSSADCASLVPQCA | rightward shift of the dose-response curve | about 60% | approximately 85% | > 80 | approximately 40%
